From US20060275822

Biological target: W-SCAT protein (Venus - caspase 3 substrate site - Venus, expressed from pRSETB/W-SCAT in Escherichia coli)

B1: active caspase 3 (CPP32, MBL) (protein)
chain: SGISLDNSYKMDYPEMGLCIIINNKNFHKSTGMTSRSGTDVDAANLRETFRNLKYEVRNKNDLTREEIVELMRDVSKEDHSKRSSFVCVLLSHGEEGIIFGTNGPVDLKKITNFFRGDRCRSLTGKPKLFIIQACRGTELDCGIETDSGVDDDMACHKIPVEADFLYAYSTAPGYYSWRNSKDGSWFIQSLCAMLKQYADKLEFMHILTRVNRKVATEFESFSFDATFHAKKQIPCIVSMLTKELYFYH
- Fluorescent anisotropy (mA) of W-SCAT after 2 hours at 37 C with 1 unit of active caspase 3, measured with Beacon (control without casp3: 225.8): 276 mA
